Measured values as given in US20220324969A1 (MYTHIC THERAPEUTICS, published 2022).
Numbering of substitutions follows the chain as printed. Names may count otherwise.

B1: Vadastuximab (antibody, V domains shown)
VH: QVQLVQSGAEVKKPGASVKVSCKASGYTFTNYDINWVRQAPGQGLEWIGWIYPGDGSTKYNEKFKAKATLTADTSTSTAYMELRSLRSDDTAVYYCASGYEDAMDYWGQGTTVTVSS
VL: DIQMTQSPSSLSASVGDRVTINCKASQDINSYLSWFQQKPGKAPKTLIYRANRLVDGVPSRFSGSGSGQDYTLTISSLQPEDFATYYCLQYDEFPLTFGGGTKVEIK
notes: IgG from Expi293 supernatant; entries called heavy/light chain are variable domains; also called MYT1334; vadastuximab starting ABPC
B2: IMGN779 (antibody, V domains shown)
VH: QVQLQQPGAEVVKPGASVKMSCKASGYTFTSYYIHWIKQTPGQGLEWVGVIYPGNDDISYNQKFQGKATLTADKSSTTAYMQLSSLTSEDSAVYYCAREVRLRYFDVWGQGTTVTVSS
VL: EIVLTQSPGSLAVSPGERVTMSCKSSQSVFFSSSQKNYLAWYQQIPGQSPRLLIYWASTRESGVPDRFTGSGSGTDFTLTISSVQPEDLAIYYCHQYLSSRTFGQGTKLEIK
notes: Unconjugated IgG from Expi293 supernatant; entries called heavy/light chain are variable domains; also called MYT1212; IMGN779 starting ABPC
B3: MYT2663 (antibody, V domains shown)
VH: B1 VH
VL: B1 VL with S34H
notes: IgG; vadastuximab VL variant #11 (S34H)
B4: MYT2673 (antibody, V domains shown)
VH: B1 VH
VL: B1 VL with Y91H
notes: IgG; vadastuximab VL variant #21 (Y91H)
B5: MYT2661 (antibody, V domains shown)
VH: B1 VH
VL: B1 VL with Y32H
notes: IgG; vadastuximab VL variant #9 (Y32H)
B6: MYT1364 (antibody, V domains shown)
VH: B1 VH with G99H
VL: B1 VL
notes: IgG; vadastuximab VH variant #30 (G99H)
B7: MYT2678 (antibody, V domains shown)
VH: B1 VH
VL: B1 VL with L96H
notes: IgG; vadastuximab VL variant #26 (L96H)

Biological target: T1, CD33 (Sino Biological, Cat #12238-H08H) (UniProt P20138 18-259)
Assay: BLI, IgG captured on anti-human Fc biosensor, CD33 at low pH or high pH

T1 sequence (P20138 18-259 limits assumed): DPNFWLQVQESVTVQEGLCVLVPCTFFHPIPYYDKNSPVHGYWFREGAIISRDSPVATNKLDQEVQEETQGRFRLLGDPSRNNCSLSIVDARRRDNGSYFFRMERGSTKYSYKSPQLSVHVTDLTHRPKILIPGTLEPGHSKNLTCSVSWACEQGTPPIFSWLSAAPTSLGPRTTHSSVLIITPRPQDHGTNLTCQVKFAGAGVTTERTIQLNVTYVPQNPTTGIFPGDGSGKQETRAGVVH

Binder | binding result
B1 | binds
B2 | binds

Biological target: T1, CD33 (Sino Biological, Cat #12238-H08H)
Assay: BLI, IgG captured on anti-human Fc sensor, pH 7.4 and pH 5.4

Binder | binding result
B3 | no binding (tested: 50 nM CD33)
B4 | no binding (tested: 50 nM CD33)
B5 | no binding (tested: 50 nM CD33)
B6 | no binding (tested: 50 nM CD33)
B7 | no binding (tested: 50 nM CD33)
